Entries after “also recorded” stand apart in the source; their conditions may differ.
Legend:
[1] = upon ingestion; cited from earlier work
[2] = biological target: T1, FKBP (SEQ ID NO: 142) and FRBT2098L (SEQ ID NO: 140) heterodimerization (Homo sapiens, UniProt P42345+P62942+Q04206, T2098L); assay: A/C heterodimerizer-inducible HumTAP gene expression system in HEK293 cells; assay type: cell-based
T1 construct: expressed in transfected cells; host or cells: HEK293
Excerpt: One well-characterized small-molecule based dimerization system is based on the rapamycin analog A/C (C16-(S)-7-methylindolerapamycin) that induces heterodimerization between the human proteins FK506-binding protein 12 (FKBP; SEQ ID NO: 142) and the FKBP12-rapamycin binding domain (FRB) mutant FRBT2098L (SEQ ID NO: 140), [31]. To achieve A/C heterodimerizer-inducible gene expression, the inventors fused FKBP (SEQ ID NO: 142) to the N-terminus of MTERF158-399 (SEQ ID NO: 1) and FRB (SEQ ID NO: 140) to the C-terminus of different transactivation domains (FIG. 10A). […] In accordance with the results described above, chimeric transactivation domains mediated higher maximal output expression levels than RelA430-551.
The inventors reasoned that in the present system, dimerization might be hindered by either FRB's or FKBP's fusion partner and investigated whether the addition of linkers between the protein domains might impact the EC50 value (FIG. 10 D). A combination of the cMyc nuclear localization signal (NLS) (SEQ ID NO: 122) linking MTERF158-399 and FKBP, and the rigid linker AP6 (SEQ ID NO: 120) linking FRB and RelA430-551 led to a reduction in EC50 to ~60 nM while also increasing maximal output ~3-fold over the variant without linkers and RelA430-551 as TAD (FIG. 10 D).

[3] = biological target: FRB and FKBP dimerization (Homo sapiens, UniProt P42345+P62942, T2098L); conditions: previously reported A/C-inducible FRB and FKBP systems [31], [33]; cited from earlier work
[4] = system: Response Element-driven (SEQ ID NO: 48) mCerulean fluorescent reporter; assay: Orthogonality: MTF-driven reporter with or without WT MTERF1 co-expression; assay type: cell-based, human; conditions: HEK293; MTF construct plus reporter SEQ ID NO: 48, with or without EF1a-driven WT MTERF1
Excerpt: To assess the orthogonality of the host towards the Response Element-driven Gene of Interest (Gol), the inventors transfected a HumTAP representative MTF (SEQ ID NO: 100) with a Response Element-driven (SEQ ID NO: 48) mCerulean fluorescent reporter, with and without the construct encoding a wild-type MTERF1 to assess whether it might interfere with the induction of the Gol by MTF (FIG. 7B).

[5] = system: endogenous human genes in HEK293 cells; assay: RNA-Seq differential gene expression analysis of transfected HEK293 cells versus junk plasmid (edgeR); assay type: cell-based; conditions: transfected HEK293 cells vs "junk" plasmid, FDR<0.5, fold-change of at least 2
Experimental: The inventors therefore used RNA-Seq to investigate whether MTF (SEQ ID NO: 100) activates the expression of endogenous human genes. The inventors also transfected WT MTERF1 (SEQ ID NO: 108) to compare the gene-regulatory effects of MTERF1 to those of MTF. Differential gene expression analysis was performed against cells that were transfected with a “junk” plasmid using the edgeR software package for R [24]. […] Future investigations will assess the dose-dependency of differentially expressed (DE) genes on MTF amount and may help clarify the origin of DE genes.

[6] = biological target: T2, MTF (MTERF1 58-399::RelA 430-551) (Homo sapiens, UniProt Q99551 SEQ:2-343); assay: cell_activity; mCitrine, HEK293; none without MTF; conditions: tags: RelA 430-551 TAD fusion
T2 chain: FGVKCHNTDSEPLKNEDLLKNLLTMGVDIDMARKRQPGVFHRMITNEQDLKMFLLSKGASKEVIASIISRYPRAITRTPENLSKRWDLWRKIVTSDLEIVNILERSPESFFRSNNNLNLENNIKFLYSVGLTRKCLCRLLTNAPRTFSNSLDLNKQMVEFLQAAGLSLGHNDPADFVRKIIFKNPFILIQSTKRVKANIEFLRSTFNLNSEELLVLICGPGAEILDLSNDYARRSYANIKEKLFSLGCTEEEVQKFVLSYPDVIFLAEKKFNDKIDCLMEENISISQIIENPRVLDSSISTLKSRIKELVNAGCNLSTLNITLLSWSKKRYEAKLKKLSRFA
Excerpt: The inventors next sought to facilitate potential future applications and created a collection of promoters with different strengths to match potential future applications' requirements. Randomly picking 20 variants yielded mostly weak promoters. To maximize diversity in size and strength, the inventors chose 19 further promoters based on their high activity score or small genetic size. Altogether, the inventors created a promoter collection spanning a wide range of sizes and strengths (FIG. 15A, B). After co-transfecting each variant either with or without a MTF plasmid amount corresponding to the EC90, and a mCherry transfection control plasmid into HEK293 cells, relative mCitrine levels were measured using flow cytometry. […]

[7] = biological target: T3, MTERF1 58-399::FoxoTAD-LMSTEN-TA1 (Homo sapiens, UniProt Q99551 SEQ:1-342); assay: cell_activity; HEK293 reporter; conditions: tags: TAD fusion
T3 chain: T2 chain
Excerpt: (§1) Upon co-transfection of HEK293 cells with plasmids encoding pEF1a-driven expression of the fusion HumTAPs, a Response Element-driven mCerulean reporter protein, and a mCherry transfection control, all peptides derived from RelA except TA1 mediated high levels of reporter gene expression. Including a larger fraction of the RelA protein led to higher reporter expression. Conversely, the core transactivation domains TA1, WW, ZNF473 KRAB, and NucRecCoAct mediated little to no reporter expression.
(§2) Similarly, two copies of FoxoTAD (SEQ ID NO: 33) mediated 20-fold more mCerulean expression than just one FoxoTAD copy and ~2-fold more than the benchmark RelA₄₃₀₋₅₅₁ TAD. This effect was not as pronounced for the LMSTEN domain for which two copies (SEQ ID NO: 196) mediated ~2.7-fold more reporter expression than one copy. Fusing FoxoTAD with LMSTEN (SEQ ID NO: 54), LMSTEN with TA1 (SEQ ID NO: 56), or FoxoTAD with TA1 (SEQ ID NO: 58) yields TADs that are at the same time smaller and stronger than the benchmark RelA₄₃₀₋₅₅₁ TAD. A chimeric TAD consisting of FoxoTAD, LMSTEN, and TA1 (SEQ ID NO: 52) yields 3.7 times the amount of reporter gene expression than RelA₄₃₀₋₅₅₁ (FIG. 9 C). It is therefore possible to engineer both stronger and smaller transactivation domains than the commonly used RelA₄₃₀₋₅₅₁ without incorporating protein domains of non-human origin. […]

MTERF1 58-399::2xFoxoTAD = biological target: T4, MTERF1 58-399::2xFoxoTAD (Homo sapiens, UniProt Q99551 SEQ:1-342); assay: cell_activity; HEK293 reporter; conditions: tags: TAD fusion
T4 chain: T2 chain
Excerpt: as §1, §2

MTERF1 58-399::2xTA1 = biological target: T5, MTERF1 58-399::2xTA1 (Homo sapiens, UniProt Q99551 SEQ:1-342); assay: cell_activity; HEK293 reporter; conditions: tags: TAD fusion
T5 chain: T2 chain

MTERF1 58-399::LMSTEN = biological target: T6, MTERF1 58-399::LMSTEN (Homo sapiens, UniProt Q99551 SEQ:1-342); assay: cell_activity; HEK293 reporter; TAD effect; conditions: tags: TAD fusion
T6 chain: T2 chain

MTERF1 58-399::FoxoTAD = biological target: T7, MTERF1 58-399::FoxoTAD (Homo sapiens, UniProt Q99551 SEQ:1-342); assay: cell_activity; HEK293 reporter; TAD effect; conditions: tags: TAD fusion
T7 chain: T2 chain

T1 sequence (P62942 with tags, fused parts or gaps, stated change not applied): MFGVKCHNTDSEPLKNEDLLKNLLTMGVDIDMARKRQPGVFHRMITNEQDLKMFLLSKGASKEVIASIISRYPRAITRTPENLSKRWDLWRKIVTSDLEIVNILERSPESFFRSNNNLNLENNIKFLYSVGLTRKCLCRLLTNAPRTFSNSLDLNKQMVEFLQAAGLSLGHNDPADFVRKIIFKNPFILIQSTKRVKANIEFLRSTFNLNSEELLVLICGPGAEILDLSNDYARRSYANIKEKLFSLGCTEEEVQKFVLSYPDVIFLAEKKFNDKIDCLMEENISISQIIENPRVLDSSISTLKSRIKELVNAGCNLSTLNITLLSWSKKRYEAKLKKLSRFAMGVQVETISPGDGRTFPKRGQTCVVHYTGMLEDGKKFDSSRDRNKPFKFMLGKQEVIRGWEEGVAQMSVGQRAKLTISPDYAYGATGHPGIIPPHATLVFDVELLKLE
T1 sequence (P42345+Q04206 fused P42345:T2098L): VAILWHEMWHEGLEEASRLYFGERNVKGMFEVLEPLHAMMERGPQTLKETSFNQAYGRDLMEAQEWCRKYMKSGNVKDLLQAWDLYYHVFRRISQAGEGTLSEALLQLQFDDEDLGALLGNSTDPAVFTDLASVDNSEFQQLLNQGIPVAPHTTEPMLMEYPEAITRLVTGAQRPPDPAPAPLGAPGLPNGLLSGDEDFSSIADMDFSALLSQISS
Chain of FRB and FKBP dimerization (P62942 whole entry): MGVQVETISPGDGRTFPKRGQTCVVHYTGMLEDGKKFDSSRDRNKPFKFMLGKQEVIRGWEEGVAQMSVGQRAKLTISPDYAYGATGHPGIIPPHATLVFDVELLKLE
Chain of FRB and FKBP dimerization (P42345 2012-2144 T2098L): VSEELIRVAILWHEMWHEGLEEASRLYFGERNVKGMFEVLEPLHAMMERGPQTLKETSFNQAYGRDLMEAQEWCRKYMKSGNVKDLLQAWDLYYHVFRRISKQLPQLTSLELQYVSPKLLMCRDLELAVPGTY

Molecule: CO[C@H]1C[C@@H]2CC[C@@H](C)[C@@](O)(O2)C(=O)C(=O)N2CCCC[C@H]2C(=O)O[C@H]([C@H](C)C[C@@H]2CC[C@@H](O)[C@H](OC)C2)CC(=O)[C@H](C)/C=C(\C)[C@@H](O)[C@@H](OC)C(=O)[C@H](C)C[C@H](C)/C=C/C=C/C=C/1C [rapamycin]
- physiological blood concentrations [1]: ~ 22 nM

Molecule: C16-(S)-7-methylindolerapamycin [A/C heterodimerizer]
- mCerulean levels versus inducer concentration ([2]; HEK cells co-transfected with MTERF158-399::FKBP and FRB fusions to the strongest TADs, FIG. 10C): increased dose-dependently
- EC50 ([2]; cMyc NLS linking MTERF158-399 and FKBP, AP6 linker linking FRB and RelA430-551, FIG. 10D): ~60 nM
- EC50 [3]: ~1 nM

B1: MTF: fusion of human MTERF1 amino acids 58-399 to RELA amino acids 430-551; prototype HumTAP synthetic transcription factor (protein)
chain: MFGVKCHNTDSEPLKNEDLLKNLLTMGVDIDMARKRQPGVFHRMITNEQDLKMFLLSKGASKEVIASIISRYPRAITRTPENLSKRWDLWRKIVTSDLEIVNILERSPESFFRSNNNLNLENNIKFLYSVGLTRKCLCRLLTNAPRTFSNSLDLNKQMVEFLQAAGLSLGHNDPADFVRKIIFKNPFILIQSTKRVKANIEFLRSTFNLNSEELLVLICGPGAEILDLSNDYARRSYANIKEKLFSLGCTEEEVQKFVLSYPDVIFLAEKKFNDKIDCLMEENISISQIIENPRVLDSSISTLKSRIKELVNAGCNLSTLNITLLSWSKKRYEAKLKKLSRFAQAGEGTLSEALLQLQFDDEDLGALLGNSTDPAVFTDLASVDNSEFQQLLNQGIPVAPHTTEPMLMEYPEAITRLVTGAQRPPDPAPAPLGAPGLPNGLLSGDEDFSSIADMDFSALLSQISS
- Gol fluorescence levels with or without concomitant WT MTERF1 expression [4]: no difference in Gol fluorescence levels
- DE genes, Regulation Up (up-regulated gene, Symbol) [5]: Novel Transcript; also recorded: USP17L2; also recorded: HSPA7; also recorded: ADGRA1

B2: sense-5-8-10 promoter (dsDNA)
DNA 1: TAAGATGGCAGAGCCCGGTAATAGAGTGCGTAAGATGGCAGAGCCCGGTAATAGAGTGCGTAAGATGGCAGAGCCCGGTAATAGAGTGCGTAAGATGGCAGAGCCCGGTAATAGAGTGCGTAAGATGGCAGAGCCCGGTAATGACTCATATGCTCTAGAGGGTATATAATGGGGGCC
DNA 2: GGCCCCCATTATATACCCTCTAGAGCATATGAGTCATTACCGGGCTCTGCCATCTTACGCACTCTATTACCGGGCTCTGCCATCTTACGCACTCTATTACCGGGCTCTGCCATCTTACGCACTCTATTACCGGGCTCTGCCATCTTACGCACTCTATTACCGGGCTCTGCCATCTTA
- binding signal [6]: 2 fold vs sense-5-9-8

B3: 5xRE, 0 bp spacing (dsDNA)
DNA 1: TAAGATGGCAGAGCCCGGTAATTAAGATGGCAGAGCCCGGTAATTAAGATGGCAGAGCCCGGTAATTAAGATGGCAGAGCCCGGTAATTAAGATGGCAGAGCCCGGTAAT
DNA 2: ATTACCGGGCTCTGCCATCTTAATTACCGGGCTCTGCCATCTTAATTACCGGGCTCTGCCATCTTAATTACCGGGCTCTGCCATCTTAATTACCGGGCTCTGCCATCTTA
- binding signal [7]: 3.7 fold vs MTF
- binding signal (MTERF1 58-399::2xFoxoTAD): ~2 fold vs MTF
- binding signal (MTERF1 58-399::2xTA1): 201 fold vs one TA1 copy
- binding signal (MTERF1 58-399::LMSTEN): 11.3 fold lower than MTF
- binding signal (MTERF1 58-399::FoxoTAD): 8.4 fold lower than MTF

Reference: patent publication US20260200999A1, “SYNTHETIC TRANSCRIPTION FACTORS” (ETH ZURICH, priority 2022, published 2026)
